From patent US20100166741A1 (Genentech, published 2010) come the findings set out here.

The target of experiment [1] is T1, mouse FcγRIII extracellular domain, His-tagged GST fusion (mouse, UniProt P08508 31-215).
T1 construct: extracellular domain; also called Mouse III; not shown: His tag and GST
T1 sequence (looked up): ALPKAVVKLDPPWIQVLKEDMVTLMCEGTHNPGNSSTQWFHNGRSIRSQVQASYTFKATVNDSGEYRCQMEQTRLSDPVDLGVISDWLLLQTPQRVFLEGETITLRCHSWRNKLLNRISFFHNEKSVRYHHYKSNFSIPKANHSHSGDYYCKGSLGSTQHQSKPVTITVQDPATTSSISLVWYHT
In words: Fcγ receptor ELISA; bar = fold change in binding relative to Herceptin (EC50 Herceptin/EC50 sample), log axis 0.1-100. (In general: ELISA stands for enzyme-linked immunosorbent assay.)

Experiment [2] has as its target T2, human FcγRI extracellular domain, His-tagged GST fusion (human, UniProt P12314 16-292).
T2 construct: extracellular domain; also called hFcgRI; FcγRIA; not shown: C-terminal Gly/His6/GST tag
The experiment is described as above.

Experiment [3] addresses T3, human FcγRIIIa (F158) extracellular domain, His-tagged GST fusion (human, UniProt P08637 17-208).
T3 construct: extracellular domain; also called hFcgRIII (F158); FcγRIII (F158 allele); not shown: C-terminal Gly/His6/GST tag
The experiment is described as above.

Experiment [4] concerns the target T4, mouse FcγRI extracellular domain, His-tagged GST fusion (mouse, UniProt P26151 25-297).
T4 construct: extracellular domain; also called Mouse I; mFcγRI; not shown: His tag and GST
T4 sequence (looked up): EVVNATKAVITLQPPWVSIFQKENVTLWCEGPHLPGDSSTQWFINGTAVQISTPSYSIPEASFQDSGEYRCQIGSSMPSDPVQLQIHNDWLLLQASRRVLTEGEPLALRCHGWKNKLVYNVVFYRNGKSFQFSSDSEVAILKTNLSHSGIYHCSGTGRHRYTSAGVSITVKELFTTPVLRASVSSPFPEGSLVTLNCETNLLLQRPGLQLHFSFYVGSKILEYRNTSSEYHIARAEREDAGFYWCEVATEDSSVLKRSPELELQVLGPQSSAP
The experiment is described as above.

Experiment [5] addresses T5, mouse FcγRII extracellular domain, His-tagged GST fusion (mouse, UniProt P08101 30-210).
T5 construct: extracellular domain; also called Mouse II; not shown: His tag and GST
T5 sequence (looked up): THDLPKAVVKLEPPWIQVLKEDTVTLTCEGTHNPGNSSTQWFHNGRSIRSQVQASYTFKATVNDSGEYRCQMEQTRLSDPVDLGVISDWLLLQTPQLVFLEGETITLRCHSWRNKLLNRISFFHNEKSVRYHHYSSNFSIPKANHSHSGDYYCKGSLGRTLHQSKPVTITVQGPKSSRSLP
The description is as above.

Experiment [6] has as its target T6, human FcγRIIIa (V158) extracellular domain, His-tagged GST fusion (human, UniProt P08637 17-208).
T6 construct: extracellular domain; also called hFcgRIII (V158); FcγRIII (V158 allele); not shown: C-terminal Gly/His6/GST tag
Briefly: ELISA, captured FcγR-GST, multimeric IgG.

In experiment [7] the target is T3, human FcγRIIIa (F158) extracellular …. Briefly: ELISA, captured FcγR-GST, multimeric IgG.
Protocol: (§1) FcγRs were expressed as recombinant fusion proteins of the extracellular domain of the receptor alpha chains with gly/his6/glutathione-s-transferase (GST). Assay plates coated with anti-GST and blocked with BSA were used to capture each FcγR. Plates were washed with wash buffer (0.05% polysorbate 20 in PBS, pH 7.4) after each incubation. […] Bound antibody was detected with the horseradish peroxidase (HRP)-conjugated F(ab′)2 fragment of a goat anti-human IgG F(ab′)₂ (Jackson ImmunoResearch; West Grove, Pa.). Plates were developed with tetramethylbenzidine (TMB) (KPL, Inc.; Gaithersburg, Md.) as the substrate. Absorbance was measured at a wavelength of 450 nm with a reference of 650 nm. Mean absorbance values from duplicate wells were plotted as a function of antibody concentration. Data were fit to a four-parameter equation to determine the concentration that yields 50% of maximum binding to each FcγR (EC₅₀) for each antibody.
Experiment [8] concerns the target T7, human FcγRIIb extracellular domain, His-tagged GST fusion (human, UniProt P31994 43-217).
T7 construct: extracellular domain; also called hFcgRIIb; CD32B; not shown: C-terminal Gly/His6/GST tag
T7 sequence (looked up): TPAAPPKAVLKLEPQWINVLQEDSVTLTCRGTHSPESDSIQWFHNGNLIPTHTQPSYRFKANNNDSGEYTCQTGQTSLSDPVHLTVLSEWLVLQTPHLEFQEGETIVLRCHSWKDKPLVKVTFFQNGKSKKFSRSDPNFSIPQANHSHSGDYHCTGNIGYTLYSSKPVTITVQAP
Briefly: ELISA, captured FcγR-GST, multimeric IgG.

For experiment [9], the target named is T8, human FcγRIIa extracellular domain, His-tagged GST fusion (human, UniProt P12318 34-217).
T8 construct: extracellular domain; also called hFcgRIIa; CD32A; not shown: C-terminal Gly/His6/GST tag
T8 sequence (looked up): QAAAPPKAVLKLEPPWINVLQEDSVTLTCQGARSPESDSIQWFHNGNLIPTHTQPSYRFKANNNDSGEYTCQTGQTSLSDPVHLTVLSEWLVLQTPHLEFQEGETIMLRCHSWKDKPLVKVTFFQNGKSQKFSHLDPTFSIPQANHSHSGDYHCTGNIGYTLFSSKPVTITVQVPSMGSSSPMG
Briefly: ELISA, captured FcγR-GST, multimeric IgG.

The target in experiment [10] is T2, human FcγRI extracellular domain, …. Briefly: ELISA, captured FcγR-GST, monomeric IgG.
Protocol: as §1

T3 sequence (P08637 17-208): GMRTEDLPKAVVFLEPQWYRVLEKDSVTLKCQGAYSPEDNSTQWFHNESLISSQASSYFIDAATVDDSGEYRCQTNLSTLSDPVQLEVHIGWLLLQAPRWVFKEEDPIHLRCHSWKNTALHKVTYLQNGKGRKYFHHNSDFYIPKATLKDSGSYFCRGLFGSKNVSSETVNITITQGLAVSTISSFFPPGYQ
T6 sequence (P08637 17-208 F176V): as the sequence (P08637 17-208) above, with F160V counted along it

B1: V3(5) (antibody, human IgG1, kappa)
heavy chain: EVQLVESGGGLVQPGGSLRLSCAASGFTISSSSIHWVRQAPGKGLEWVAWVLPSVGFTDYADSVKGRFTISADTSKNTAYLQMNSLRAEDTAVYYCARRVCYNRLGVCAGGMDYWGQGTLVTVSSASTKGPSVFPLAPSSKSTSGGTAALGCLVKDYFPEPVTVSWNSGALTSGVHTFPAVLQSSGLYSLSSVVTVPSSSLGTQTYICNVNHKPSNTKVDKKVEPKSCDKTHTCPPCPAPELLGGPSVFLFPPKPKDTLMISRTPEVTCVVVDVSHEDPEVKFNWYVDGVEVHNAKTKPREEQYNATYRVVSVLTVLHQDWLNGKEYKCKVSNAALPAPIAATISKAKGQPREPQVYTLPPSREEMTKNQVSLTCLVKGFYPSDIAVEWESNGQPENNYKTTPPVLDSDGSFFLYSKLTVDKSRWQQGNVFSCSVMHEALHNHYTQKSLSLSPG
light chain: DIQMTQSPSSLSASVGDRVTITCRASQDVSTAVAWYQQKPGKAPKLLIYSASFLYSGVPSRFSGSGSGTDFTLTISSLQPEDFATYYCQQSQISPPTFGQGTKVEIKRTVAAPSVFIFPPSDEQLKSGTASVVCLLNNFYPREAKVQWKVDNALQSGNSQESVTEQDSKDSTYSLSSTLTLSKADYEKHKVYACEVTHQGLSSPVTKSFNRGEC
notes: also called V3-46s S298A/K326A/E333A/K334A
For B1, the binding result in [1], in [2], in experiment [3], in experiment [4] and in experiment [5] was “binds” throughout.

B2: V3-46s IgG (antibody)
heavy: not shown
light: B1 light chain
notes: also called HV3-46S; HV3-46S-Bulk
Take B2: the EC50 came to 0.28 µg/mL in experiment [6]; 1.52 µg/mL in [7]; 1.02 µg/mL in experiment [8]; 0.3 µg/mL in experiment [9]; 0.00158 µg/mL in [10]. Moreover, the binding result in experiment [1], in experiment [4] and in experiment [5] was “binds” in each case.

A word on the EC50: it is the concentration at which the effect is half-maximal. A higher EC50 goes with weaker potency.
